This is an account of results in patent publication US20240270826A1 (NATIONAL RESEARCH COUNCIL OF CANADA, published 2024).

The target of test [1] is T1, SARS-CoV-2 S on CHO-S cells (SARS-CoV-2, UniProt P0DTC2 14-1273).
T1 construct: whole, on cells
In words: flow cytometry, CHO-S cells.

The target of test [2] is T2, Human SARS-CoV-2_Wuhan S (SmT1) (SARS-CoV-2 (Wuhan), UniProt P0DTC2 14-1208). In words: SPR, VHH over immobilised S. On the technique in general: In SPR one partner is held on a chip, and binding of the other changes the refractive index at the surface.
Test [3] addresses T2, Human SARS-CoV-2_Wuhan S (SmT1). Description: SPR, VHH over immobilised S. The source holds these as a separate data set.
For test [4], the target named is Human SARS-CoV-2_Wuhan S (SmT1) (SARS-CoV-2 (Wuhan), UniProt P0DTC2 14-1208). In words: flow cytometry SVNA, VHH-Fc vs biotin-S binding to Vero E6 ACE2.
The target in a further test is SARS-CoV spike (S) (SARS-CoV, UniProt P59594 14-1195). Description: SPR, VHH over immobilised S.

Read-outs that look alike come from different tables or passages of the source.

B1: NRCoV2-1a VHH-Fc (Fc fusion)
chain: EVKLVQSGGGSVQPGGSLRLSCAASGSTLDYYAIGWFRQAPGKEREWVSCVSSSDGSTLYADSVKGRFTISRDNAKNTVYLQMNSLKPEDTAVYVCAADYSMRPLWVSRWHRDYEYWGQGTQVTVSS
notes: bivalent VHH-Fc
By EC50 is commonly meant the concentration that produces a half-maximal response. A high value points to lower potency in that assay. For B1, in test [1], the Bmax was found to be 17200 and it took 1100 pM to reach a half-maximal effect (EC50).

B2: NRCoV2-1d VHH (VHH)
VHH: EVQLVESGGGSVQPGGSLRLSCAASGSTLDYYAIGWFRQAPGKEREWVSSVSSSDGNTLYADSVKGRFTISRDNAKNTVYLQMNSLKAEDTAVYVCAADYSMRPFAVGRWHRDYEYWGQGTQVTVSS
In general, Kd refers to a measure of binding affinity in units of concentration. Lower therefore signals higher affinity. By koff is commonly meant the rate constant with which the complex falls apart. As a reminder, the kon is a measure of how fast the partners come together. Higher therefore signals faster complex formation. On to B2, for which, in test [2], the Kd came to 750 pM, the koff is 0.00105 s⁻¹ and the kon was 1.39e+06 M⁻¹ s⁻¹. The Kd in test [3] amounted to 750 pM.

B3: NRCoV2-1a VHH-Fc (Fc fusion)
chain: EVKLVQSGGGSVQPGGSLRLSCAASGSTLDYYAIGWFRQAPGKEREWVSCVSSSDGSTLYADSVKGRFTISRDNAKNTVYLQMNSLKPEDTAVYVCAADYSMRPLWVSRWHRDYEYWGQGTQVTVSS
notes: bivalent VHH-Fc
What is called IC50 is the concentration that gives 50% inhibition. Low values mean greater potency, high ones weaker potency. Broadly, the IC99 is the concentration at which the effect reaches the 99% level. B3: in test [4], the IC50 was found to be 9200 pM, the IC99 was determined as 89.4 nM and the Imax % was found to be 94%.

B4: NRCoV2-15 VHH (VHH)
VHH: EVQLVSSGGGLVEAGGSLRLSCIASGSTSGRNTMGWFRQAPGKQREWVAIVSTSGATNYAGSVKGRFTLSRDNAKNAVYLQMNNLKPEDTAVYYCYAAYGGGGDYWGQGTQVTVSS
With B4, the binding result with SARS-CoV spike (S) is recorded as “no binding”. In test [2], this molecule displayed a Kd of 321 pM, a koff of 0.000222 s⁻¹ and a kon of 691000 M⁻¹ s⁻¹. The same molecule displayed a Kd in test [3] of 320 pM.

B5: NRCoV2-S2H4 VHH-Fc (Fc fusion)
chain: QVQLVQSGGGLVQAGGSLRLSCAASGFTFNLYSIAWFRQAPGKEREGVSCINSGDRDSTTYYADSVKGRFTISRDNAKHTAYLQMDSLKPEDTAVYYCALVFGYTSRDYCLTPKRGNYWGQGTQVTVSS
notes: bivalent VHH-Fc
As for B5, in test [1], the Bmax worked out at 7910 and the response was half-maximal at 1000 pM (EC50).

B6: NRCoV2-04 VHH (VHH)
VHH: AVQLVDSGGGLVQPGGSLRLSCAASGSPFSNVVMAWYRQAPGKQRERVAFISGGGIADYIMSVKGRFTISRDNAKNTVYLQMNSLKPEDTAVYYCWSSYESTWGQGTQVTVSS
B6: the binding result with SARS-CoV spike (S) was “no binding”. In test [2], the Kd worked out at 10200 pM, the koff was 0.0188 s⁻¹ and the kon worked out at 1.84e+06 M⁻¹ s⁻¹. This molecule registered a Kd in test [3] of 10200 pM.

B7: NRCoV2-03 VHH (VHH)
VHH: EVQLVSSGGGLVQAGGSLRLSCTASGITFSYYAMGWYRQAPGQPRELVASMSNMDSTIYADSVKGRFTISRDNAKTTIYLQMNNLKPEDTAVYFCNIYGPTYSTRRNEYWGQGTQVTVSS
In the case of B7, the binding result with SARS-CoV spike (S) was “no binding”. In test [2], this molecule registered a Kd of 1560 pM, a koff of 0.000181 s⁻¹ and a kon of 116000 M⁻¹ s⁻¹. Further, in test [3], the Kd is 1560 pM.

B8: NRCoV2-10 VHH (VHH)
VHH: QLQLQESGGGLVQPGGSLTLSCAASGNTFSRSNMHWYRQAPGAQREWVAAISSRGISTYAYSAKGRFTISRDNAKNTVSLQMNSLKPEDTAVYYCYAADDLGDYWGQGTQVTVSS
For the molecule B8, the binding result in the test with SARS-CoV spike (S) is reported as “no binding”. Also, in test [2], binding was put at a Kd of 199 pM, the koff worked out at 0.000116 s⁻¹ and the kon came out at 581000 M⁻¹ s⁻¹. In test [3], binding was characterised by a dissociation constant (Kd) of 200 pM.

B9: NRCoV2-07 VHH (VHH)
VHH: QVQLVQSGGGLVQPGGSLRLSCAASGVTLDYYAIGWFRQAPGKEREAVSCISSNGRRNHYVASVRGRFTISRDNAKSTVYLQMNSLKPEDTAVYYCAAVQDVHGDNYYCTSPNEYNVWGQGTQVTVSS
B9: the Kd in the test with SARS-CoV spike (S) was determined as 12200 pM; in test [2], 939 pM; in test [3], 940 pM. Further, the koff in the test with SARS-CoV spike (S) was found to be 0.00146 s⁻¹; in test [2] it was 0.000355 s⁻¹. Also, the results for the kon (with SARS-CoV spike (S); in test [2]) were 120000 M⁻¹ s⁻¹ and 378000 M⁻¹ s⁻¹, respectively.

B10: NRCoV2-MRed25 VHH-Fc (Fc fusion)
chain: EVQLVESGGGLVQAGGSLRLSCAASGHTFSRYGMGWFRQAPGKEREFVAAISWRGDSTYYRDSVNGRFTISRDNAKNTVYLGMNSLKPEDTAVYYCAAEMWGTATIVASRYTYWGQGTQVTVSS
notes: bivalent VHH-Fc
For the molecule B10, in test [1], the Bmax is 4420 and the midpoint of the response, the EC50, lay at 800 pM.

B11: NRCoV2-17 VHH (VHH)
VHH: EVQLQQSGGGLVQTGGSLRLSCAAAGSPFSQLAMSWYRQISGKERAWVASISPTGNRSYSKIAKGRFTISRDNAKNTVTLQMTSLKPEDTAAYICQAANVNGGDYWGQGTQVTVSS
For the molecule B11, in the test with SARS-CoV spike (S), the binding result is given as “no binding”. In test [2], the Kd is 154 pM, the koff was determined as 9.45e-05 s⁻¹ and the kon worked out at 614000 M⁻¹ s⁻¹. In test [3], this molecule returned a Kd of 150 pM.

B12: NRCoV2-SR13 VHH (VHH)
VHH: EVQLVESGGGLVTTGGSLRLSCATSGSRFGSKHMAWYRQAPGKQRDLVAAISSGGSTHYGSSVKGRFTISRDNAKSTVYLQMNSLNPEDTAVFYCNMGGWDYRSNTYIPGSRSDYWGQGTQVTVSS
On to B12, for which, in test [2], the Kd was 3560 pM, the koff was 0.00376 s⁻¹ and the kon worked out at 1.06e+06 M⁻¹ s⁻¹. Moreover, the Kd in test [3] turned out to be 3600 pM.

B13: NRCoV2-14 VHH (VHH)
VHH: EVQLVSSGGGLVQAGGSLRLSCEASGTTFSHYAVGWYRQAPGKQREWVASISVFGSTTYGGSVAGRFTISRDNDKNTVDLQMNSLKPEDTAVYYCHAVNADIGGDYWGQGTQVTVSS
B13: in the test with SARS-CoV spike (S), the binding result was “no binding”. Moreover, in test [2], the affinity, expressed as Kd, was 2600 pM; the koff was 0.00101 s⁻¹; the kon stood at 389000 M⁻¹ s⁻¹. The Kd in test [3] is 2600 pM.

B14: NRCoV2-05 VHH (VHH)
VHH: EVKLVQSGGGLVQPGGSLRLSCAASGFIFSNYAMNWVRQAPGKGLEWVSGINSGGGDTRYADSVKGRFTVSRDNAKNTLYLQMNSLKPEDTGVYYCSKGPVSSYYGSGYDYRGQGTQVTVSS
Take B14: in the test with SARS-CoV spike (S), the binding result is “no binding”. Also, in test [2], the Kd was found to be 2570 pM, the koff is 0.00709 s⁻¹ and the kon turned out to be 2.76e+06 M⁻¹ s⁻¹. In addition, the Kd in test [3] amounted to 2600 pM.

B15: NRCoV2-06 VHH (VHH)
VHH: EVQLVQSGGGLVQAGESLRLSCAASVSTFSSYAMGWYRQAPGKQRELVASIGFVGATYYIDSVKGRFTISRDNAKKTAYLQMNDLKPDDTAVYYCNARHYGGSEYWGQGTQVTVSS
As to B15, the binding result in the test with SARS-CoV spike (S) is reported as “no binding”. Further, in test [2], the Kd is 223000 pM, the koff amounted to 0.00456 s⁻¹ and the kon amounted to 20500 M⁻¹ s⁻¹. Moreover, the Kd in test [3] turned out to be 223000 pM.

B16: NRCoV2-11 VHH (VHH)
VHH: EVQLVSSGGGLVQPGGSLRLSCAASGSSLDSYSVSWFRQAPGKEREWISFISRYYSSTYYTDSVKGRFTTSRDGDQKTVHLQMNSLKPEDTAVYYCAARSRDFSSPFSATDTYTSWGQGTQVTVSS
B16: in the test with SARS-CoV spike (S), the affinity, expressed as Kd, was 14 pM; the koff stood at 2.7e-05 s⁻¹; the kon was 1.93e+06 M⁻¹ s⁻¹. For the same molecule, in test [2], the Kd came to 17.7 pM, the koff was 1.71e-05 s⁻¹ and the kon worked out at 964000 M⁻¹ s⁻¹. In test [3], the Kd turned out to be 18 pM.

B17: NRCoV2-11a VHH-Fc (Fc fusion)
chain: EVQLQQSGGGLVQPGGSLRLSCAASGFTLDSYNIAWFRQAPGKEREWISYISRYYESTYYSDSVKGRFTTSRDGDKKTVSLQMNSLKSEDTAVYYCAARSRDFSSPISATDKYGSWGQGTQVTVSS
notes: bivalent VHH-Fc
Regarding B17, in test [1], the Bmax stood at 12000 and the EC50 came to 2000 pM.

B18: NRCoV2-11a VHH-Fc (Fc fusion)
chain: EVQLQQSGGGLVQPGGSLRLSCAASGFTLDSYNIAWFRQAPGKEREWISYISRYYESTYYSDSVKGRFTTSRDGDKKTVSLQMNSLKSEDTAVYYCAARSRDFSSPISATDKYGSWGQGTQVTVSS
notes: bivalent VHH-Fc
Regarding B18, in test [4], the IC50 was found to be 9700 pM, the IC99 was 67.6 nM and the Imax % worked out at 46%.

B19: NRCoV2-02 VHH (VHH)
VHH: EVQLVESGGGLVQAGGSLRLSCAASGFTFSNYAMNWVRQAPGKGLEWVSGISGRGDDTRYADSVKGRFTISRDNAKNTLFLQMRSLRPEDTGVYRCTKGPDLYYFGSGYSDRGQGTQVTVSS
Consider B19, for which, in the test with SARS-CoV spike (S), the binding result was “no binding”. In test [2], the Kd was 624 pM, the koff was 0.00127 s⁻¹ and the kon turned out to be 2.04e+06 M⁻¹ s⁻¹. In addition, the Kd in test [3] is 620 pM.

B20: NRCoV2-SR02 VHH (VHH)
VHH: EVQLVDSGGGLVQAGGSLRLSCTASEFTLNYYSIGWFRQSPGKEREGVSCIRYSGGGIDYADSVKGRFTISRDNAKNTVYLTMNSLKPEDTAVYYCAADRLYSRACPTAGGRNYWGQGTQVTVSS
Take B20: in test [2], binding was characterised by a dissociation constant (Kd) of 135 pM, the koff worked out at 0.000669 s⁻¹ and the kon came to 4.98e+06 M⁻¹ s⁻¹. In test [3], this molecule came in with a Kd of 470 pM.

B21: NRCoV2-20 VHH (VHH)
VHH: EVQLQQSGGGLVQPGGSLRLSCAASGRTFSNYVVGWFRQAPQAPGKDHEFVAVISGSDTETYYADSVKGRFTISRDNAKNTVYLQMNSLKPEDTAVYYCAADRGMSYYYTRATEYYYWGQGTQVTVSS
As to B21, in test [2], binding was characterised by a dissociation constant (Kd) of 4390 pM, the koff was 0.0116 s⁻¹ and the kon came to 2.64e+06 M⁻¹ s⁻¹. Moreover, the Kd in test [3] worked out at 4390 pM.

B22: NRCoV2-18 VHH (VHH)
VHH: EVQLVESGGGLVQAGGSLRLSCVASGITISGYNMAWWRQTRGKQTERVAFINSGGSTTYSDSVKGRFTISRDNGKNTAYLQMNSLNAEDTADYFCSLHTSHDYWGQGTQVTVSS
Take B22: in test [2], binding was put at a Kd of 318 pM, the koff is 9.39e-05 s⁻¹ and the kon was 295000 M⁻¹ s⁻¹. The same molecule registered a Kd in test [3] of 320 pM.
